Experimental data taken from the DeepSol protein solubility set.

Experiment: soluble on expression in E. coli; label from the status in PepcDB or PDB records

Q: With “MAAKIPGVIALFDVDGTLTAPRKEATPELLDFIRELRKVVTIGVVGGSDLSKISEQLGKTVTNDYDYCFSENGLVAHKDGKSIGIQSLKLHLGDDKLKELINFTLHYIADLDIPIKRGTFIEFRNGMLNVSPIGRNCSQEERDEFERYDKVQNIRPKMVAELRERFAHLNLTFSIGGQISFDVFPKGWDKTYCLQYLEDFSEIHFFGDKTYEGGNDYEIYESPKTIGHSVTSPDDTVAKCKALFMS” as the sequence, how does the “soluble on expression in E. coli” value read?
A: soluble

Q: For “MNYLERLVESWPVEQCSAAVVTSDEVTTAGDGNIRYELASVTKLLSTYAVLIAVEEGAFALDTPCGPEGATVRHLLAHASGVGFRSTDACKAPEQRRIYSSYGFELLADVIAHEADMPFAQYLDEAVCQPIGMTHTQLWGSAGHESYSTVNDLVLFAREILQPSLIAQETLVQACTVQFPELHGIVPGYGMYKPCPWGLGFEIKGEKNPHWTAAVMPHTTVGHFGQAGTYLWVDRESQRAMVALTNRSFGDWAKPLWAETNAGVWEHLDQLNL”, which “soluble on expression in E. coli” value is on record?
A: not soluble

Q: Which “soluble on expression in E. coli” value does the source give for “GMKGISHRIAIPLILEVGNNKIYNIGQIIKKGNFKRVSLYFGEGIYELFGETIEKSIKSSNIEIEAVETVKNIDFDEIGTNAFKIPAEVDALIGIGGGKAIDAVKYMAFLRKLPFISVPTSTSNDGFSSPVASLLINGKRTSVPAKTPDGIVVDIDVIKGSPEKFIYSGIGDLVSNITALYDWKFEEENHKSIIDDFAVMISKKSVNSFVRTDFKSIKDEVFLKELVDSLTMNGIAMEIAGNSSPASGAEHLISHALDKFLPNPQLHGIQVGVATYIMSKVHKHREERIKKILSDTGFFNYVKGLNMKKSDFKRAISEAHLIKPARYTYLHVEKNCETAKEIVDTDEILRNILV” here?
A: soluble

Q: For “MLKMIAFDFDGTLAPTIPMVIDVFRRSVAPYVEHELTKQAIVQTFGLNEVGMVKAVAGQRWPVALAAFYQEYARAHLRVSAPYPGIVTLLELLQQQGVALALITGKAAKSCQISLDVTGLTSYFPTRLYGSECQPNKADNLRQLMRTKSLDAAELFYVGDTRSDFEAADTAGVQCLTAAWDPNQPIVEAGDQIVFTSVEQLWAYLQRRLGHGLVRPMSHKPR”, which “soluble on expression in E. coli” value is on record?
A: not soluble

Q: Which “soluble on expression in E. coli” value does the source give for “MAHHHHHHMQRHSSHLLLLLVAVVIPVCSEDKLDFTKLRDPFDMDEINRKLQEKVADDDPVQKAMPDPMDPKFRAPLRCSACGAVIEHAVRLLRPIIERQSERAARSGGVLPADALPKEYEMVDIFENLCGEVGRLYGLEVEKDKKRPTLRFSKSFGVSRLQGAWMPSFLTSTCEGVLDVEGEEKLAAMILGVARSEAEAGRGKVISMNPDQGIVDKVREMVCTKWEESAKGCDAYGVAIDPRETDNDDGAEEAASDL” here?
A: soluble

Q: With “MFGCITMSENNQCVIVGIAGASASGKSLIASTIYNELRAKVGDHQIGVITEDCYYKDQSHLSMEERVKTNYDHPSALDHDLLCQHLQMLARGEAVEVPEYSYTEHTRTEQTTTMTPKKVIILEGILLLTDPRLRDLMHATVFMDTPLDICLLRRVKRDVQERGRTMESVLKQYQETVRPMFMQFIEPSKQYADIIVPRGGKNRIAIDVLKAHIAKLLKS” as the sequence, how does the “soluble on expression in E. coli” value read?
A: not soluble

Q: For “MEHTIAVIPGSFDPITYGHLDIIERSTDRFDEIHVCVLKNSKKEGTFSLEERMDLIEQSVKHLPNVKVHQFSGLLVDYCEQVGAKTIIRGLRAVSDFEYELRLTSMNKKLNNEIETLYMMSSTNYSFISSSIVKEVAAYRADISEFVPPYVEKALKKKFKLEHHHHHH”, which “soluble on expression in E. coli” value is on record?
A: soluble

Q: Which “soluble on expression in E. coli” value does the source give for “MTQQHPHLLEPELGEFLTALKNTPSRLTARTAAWLCIWTASRPGMVRLAEWKEFDLDKATWTTPAAKMKMRRDFVCPLPHQAIAALKELHCLTGRSRWLFPGVGAKNPTISENTINKVFATIGYKGRLVGHGTRHTASTLLREHGWPKEHVEAQLAHKEEGLEHHHHHH” here?
A: not soluble

Q: For “MSLTENKELRDILGGYHDNIKSKIMENKLDEAIYLVDSLSATFKLPSSGYDRSSCTPYNNEVSEKYGIEEYVNASLIPTPRTLFIAAQNPKDEKRDVFTDLLMKSNTKLVVSLIDDPRYFEEEWLQDRKVIKYMNKDLFIDEIYNIRGRNIRRLRYINWVDFSVITREEMEVFHSYFDSVRTEVVLVHCIAGVGRTGTFIMYDILKRMENITLDTFIDVFLNLRSKRAHLVTNKIQLEFLKNIFLESEGHHHHHH”, which “soluble on expression in E. coli” value is on record?
A: soluble

Q: Which “soluble on expression in E. coli” value does the source give for “MEKMYNVGKIVNTHGLIGEIRVIATTDFPEERFQVGNTVYLFEKNSKKPEKLIIRSHRKHKNFDLLMFEGFTGIHQVERMKEGVLKIKETQLTNLEENEFYFHEIIGCTVVTTDGEELGEITEILTPGANDVWVVKGADKKEKLIPYIADVVKEINIDDQKITIEVMEGLLD” here?
A: soluble

Q: Which “soluble on expression in E. coli” value does the source give for “MGHHHHHHEFMLKNDDFVIAKNQLGNIVPNSVGVIRAVNGKSAMVLFIGLNELKRVDFSELEAIDIYRTGKGYDKKICNICHILKNTDGFEINQTDAKGRKTTRPSCRECRKNIDGVKLSSTEKKKMDEIAPPKGSVFTCPICEKRSIVGVTANLVHDHNHDTGWGREWICDSCNTGLGRFKDNPKFLEKVIEYLKKYEK” here?
A: soluble

Q: For “VADTDGHYRVRAITEISSFNETLGATFSDKEFDTIGGLVINKFGRLPKNGESITIEGFNFTVTRADSRRLHLLKVERIEPGVVEDADSHDSV”, which “soluble on expression in E. coli” value is on record?
A: not soluble

Q: For “MGSDKIHHHHHHMSMDIVERINKLKEEKNAVILAHNYQPKEIQKIADFLGDSLELCIKAKETDADIIVFCGVDFMGESAKILNPEKKVLMPEIEGTQCPMAHQLPPEIIKKYRELYPEAPLVVYVNTTAETKALADITCTSANADRVVNSLDADTVLFGPDNNLAYYVQKRTDKKVIAIPEGGGCYVHKKFTIDDLKRVKSKYPNAKVLIHPECSPELQDNADYIASTSGILRIVLESDDEEFIIGTEVGMINRLEIELEKLGKKKTLIPLRKDAICHEMKRITLEKIEKCLLEERYEIKLEKEIIEKAQKAIERMLRI”, which “soluble on expression in E. coli” value is on record?
A: not soluble

Q: Which “soluble on expression in E. coli” value does the source give for “MASFKVKPEHTGPPDLYYNETEAAKYASNSHITAIQHEMAERALELLALPEGKSGFLLDIGCGTGMSSEVILDAGHMFVGVDVSRPMLEIARQDEDLESGDFIHQDMGLGMPFRPGSFDGAISISAIQWLCHANASDENPRKRLLFFFQSLYGCLGRGSRAVFQFYPENDEQCDLIMGQAHKAGFNGGLVVDFPEAAKRKKVYLVLMTGGVVQLPQALTEDGEESRTQIDNAGRRFVWNSRKNEKVAKGSKAWIEAKRQRQIKQGRDVRHESKYSGRKRKTKF” here?
A: not soluble

Q: For “MGANTKYKDSVFSLLFSDPDLLRELYCALEGVSLPADIPVTINTLRDALFMGMINDISFEIGGKLIILIEHQSTINPNMALRLLMYIARVYEKLIGDRNIYSSRLIHIPRPEFYVLYNGVTPYPDRTTLKLSDMFEKAGAFGLPEKGSAALELEVNVININEGKNEVIAKKCKTLAGYSAFVAKVRAFEKEIGDKTEAMKQAVRYCRDHDILKEFLEQNGTEVMNMLINEWNIEDAKKVWYEDGLSQGLEKGLEKGREEGREEESFSIAQNLVKLGLPIETIISATQLDPDKVKALYQQ”, which “soluble on expression in E. coli” value is on record?
A: soluble

Q: Which “soluble on expression in E. coli” value does the source give for “GSVYNTKKVGKRLNIQLKKGTEGLGFSITSRDVTIGGSAPIYVKNILPRGAAIQDGRLKAGDRLIEVNGVDLAGKSQEEVVSLLRSTKMEGTVSLLVFRQEEAFHPREMNA” here?
A: soluble

Q: Which “soluble on expression in E. coli” value does the source give for “MAETKRMTVSQALVEFLGHQWTVDGDIRERTIPGMFGIFGHGNVAGIGQALKQYNVEQPELMPYYQARNEQAMVHQSVGYARMHRRRGTYASAASVGPGATNLLTGAALATTNRLPALLLPSDTFATRVADPVLQQLEQPWDIGLTVNDAFRPVSKFFDRVQRPEQLFSIALAAMRVLTDPAETGAVTIALPEDVQAEMLDVPVEFLQDREWHIRRPR” here?
A: not soluble

Q: Which “soluble on expression in E. coli” value does the source give for “AIAPSRQLEDPGAGTPSPVRLHALAGFQQRALCHALTFPSLQRLVYSMCSLCQEENEDMVPDALQQNPGAFRLAPALPARPHRGLSTFPGAEHCLRASPKTTLSGGFFVAVIERVEMPT” here?
A: soluble

Q: Which “soluble on expression in E. coli” value does the source give for “MSENMVNLPDSLYEDYSKLKLTSPSNASSSSSAPPPRLSVVAHPTVEMIIQWVCDIHKPKSYMSDFALHNLAYHRNDFEFLPSLLWESKNTVYIMLQEVFEAYRHLAGHISLRLFPHPLNPLRVYNVFLLFQSMACHPDTSRQFLRAKMPNYFYPLMDTGLIDKSDECMRLAALGVIAHMLKASEDGAVNRYLMESGVVGFCVKPIEFGSTETKKVALYILDKIMSTDQGLYYCCVLADRFYVIDELLKKVLFYLSNMVRPPSSLFSLVTGCYVKLSQNSRARNGIRRYTPFLLFDGTFSRLYAEDPVAANNRIQLLQNLDN” here?
A: soluble

Q: Which “soluble on expression in E. coli” value does the source give for “MGSDKIHHHHHHMKIEFDVVVVGAGPSGLSCAYVLAKNGLKVAVVEKGEYPGSKNVMGGVLYVHPLKEIMPDFLEKAANSKALERNVIEQNLWLLGNEGVIKIGHRNVEWKENPNAFTVLRANFDRWFAQEVEKAGALIIPKTKVEDFLRNEKGEIAGVVTSRPKGEIHSKAVVIAEGVNPILTMKAGLRKEDLKPHMVAVAVKEVISVPEDVVNRVFGVEGNDGATIELLGSWSEGMFGMGFLYANRSSVSLGCGVLLEDLRKKKIKPYQLLENLKNHPVISDMLGEYRNNTMEYLAHLIPEGGYYAMPKVYGDRVLVCGDAAMLVNSIHREGSNHAITSGRLAAETLLEAFEKGDFSEKILKNYYLRLKESFILKDLEKYKDLMPTMEKNHQFVEIYPDLANDALKRFLQVDGTPKWDVQKQIADMVLSRRSLIGISLDLLRFWRAVR” here?
A: not soluble

Q: For “MALAEEDVHMIIKQVLDEVVGASTQYTHKDSVQWNQKAVEQITKKLVAAGKPYKYVVTSSFLQISSGSGLNVSTISYWNKVTDSSYMYRWEAKTMLAIVYVFAIAI”, which “soluble on expression in E. coli” value is on record?
A: not soluble

Q: For “MLRISRDLVIDEDDIEIGFVRASGPGGQNVNKVATSAQLRFDTRKLTLPEDATIRLARIAGQRMTKDGVIVIHAQRFRTQERNRQDAIDRLVEILSEALEHHHHHH”, which “soluble on expression in E. coli” value is on record?
A: not soluble

Q: Which “soluble on expression in E. coli” value does the source give for “MVLSHAVSESDVSVHSTFASRYVRTSLPRFKMPENSIPKEAAYQIINDELMLDGNPRLNLASFVTTWMEPECDKLIMSSINKNYVDMDEYPVTTELQNRCVNMIAHLFNAPLEEAETAVGVGTVGSSEAIMLAGLAFKRKWQNKRKAEGKPVDKPNIVTGANVQVCWEKFARYFEVELKEVKLSEGYYVMDPQQAVDMVDENTICVAAILGSTLNGEFEDVKLLNDLLVEKNKETGWDTPIHVDAASGGFIAPFLYPELEWDFRLPLVKSINVSGHKYGLVYAGIGWVIWRNKEDLPEELIFHINYLGADQPTFTLNFSKGSSQVIAQYYQLIRLGHEGYRNVMENCRENMIVLREGLEKTERFNIVSKDEGVPLVAFSLKDSSCHTEFEISDMLRRYGWIVPAYTMPPNAQHITVLRVVIREDFSRTLAERLVIDIEKVMRELDELPSRVIHKISLGQEKSESNSDNLMVTVKKSDIDKQRDIITGWKKFVADRKKTSGIC” here?
A: soluble

Q: Which “soluble on expression in E. coli” value does the source give for “AHHHHHHGSVDMSKVKLRIENIVASVDLFAQLDLEKVLDLCPNSKYNPEEFPGIICHLDDPKVALLIFSSGKLVVTGAKSVQDIERAVAKLAQKLKSIGVKFKRAPQIDVQNMVFSGDIGREFNLDVVALTLPNCEYEPEQFPGVIYRVKEPKSVILLFSSGKIVCSGAKSEADAWEAVRKLLRELDKYGLLEEEEEEL” here?
A: soluble

Q: For “MTEVILFFFATPKRATFSLELTSMKKLATLLAGSACALSLLSGTAAAEDKELVFMNWGPYINSGILEQFTKETGIKVIYSTYESNETLYAKLKTHNQGYDLVVPSTYFVAKMRDEGMLQKIDKSKLSNFKNLDSNYLDKPYDPNNDYSIPHVVAITGLAVNTDMYDPNDFQSWGDLWKPELKGQLMLMDDTREVFHIALRKLGYSGNSTDDKQIDEAYAELQKLMPNVLVFNSDNPAAPYLSGEVGLGMLWNGSAAAAQKEGLPIKLVFPKEGGIGWVDNFAISSGAKNVDAAHKMIDFLLRPEIAEQISRDTGYLTGVKASNDKFQDVAPLFPSQEDLDRVEWQSAVGDKTVKYEEYFMKLKAGQ”, which “soluble on expression in E. coli” value is on record?
A: not soluble

Q: With MDIYVCTVCGYEYDPAFEDLPDDWACPVCGASKDAFEKQ as the sequence, how does the “soluble on expression in E. coli” value read?
A: soluble
